Source: US20150018409A1, “CHIMERIC POLYPEPTIDES AND THEIR USE” (ADRIACELL S.P.A., priority 2003, published 2015)

Experiments:
[1] = tested on: p53 positive or negative cells; assay: Cell cycle response to DSB's by FACS in p53 positive or negative cells; assay type: cell-based
Experimental: (§1) The cell cycle response to DSB's induced by […] treatment were analysed in p53 positive or negative cells. […] Incubation for 36 hours of the cell lines mutated for ATM (AT-5) with […] results in a transient retardation of the cell cycle, as was determined by a DNA content FACS analysis. […] A single addition of […] for 60 minutes to the AT-5 cells was sufficient to induce cell cycle stop after 24 hours (FIG. 8A) and finally leads to cell death, obtained from not correctly ligated DNA, and consequently, the clonogenic activity after a single treatment with […] for 60 minutes was below 0.02% for AT-5 cells. […] In addition, the cells were incubated with adriamycin as a control.

[2] = tested on: MRC-5 cells (ATM positive); details: SCPVUTAT 100 nM or HU 1 mM
Experimental: [sequence] dependent Ser^15 phosphorylation of p53. The ATM positive cell-line MRC5 was treated with [sequence] (100 nM, SC) or with hydroxyurea (1 mM, HU) for the time periods as indicated; as a control non treated cells were used (O).
(§3) P53 phosphorylation on Ser15 in response to [sequence] treatment was assayed in ATM positive or negative cell lines (MRC-5 and AT-5 respectively). For comparison parallel experiments were done with hydroxyurea (HU). […] For this immunoblotting experiments were done with extracts after treatment, by using specific antibodies to a phosphorylated Ser15 in p53 for specific detection.

U2OS cells = assay: FACS analysis of DNA content / cell cycle distribution; assay type: cell-based, human; details: for cells in G2 phase: control 20%
Experimental: The distribution of the various phases of the cell cycle of the protein transduced cells was analysed by FACS analysis. Distribution of the DNA content of the cell populations was detected. 2n represents a diploid DNA equivalent (non replicated; G1 phase), 4n represents the tetraploid DNA equivalent (replicated; G2/M phase). For the FACS analysis the cells were separated employing the DDM mode that allows to estimate DNA content of a single cell. U2OS cells were grown for 24 hours (upper row) or 48 hours (lower row) in the presence of increasing amounts of […] (10 nM, 50 nM, 100 nM) as indicated and with only one addition of proteins; non treated cells (control); cells treated with a nuclease impaired derivative of […] (SC34, 100 nM). All the histograms shown represent a measure of DNA content relative to the cell numbers as indicated only on the upper right panel.
U2OS cells were incubated with […] (10 nM, panel B), or with H2O2 (10 μM, panelC), or both ([…], 10 nM; H2O2, 10 μM; panel D), or with no agent as a control (panel A). Further treatment cells were analysed in FACS for DNA content; the percentage of the various cell cycle phases are indicated at the bottoms of the individual histograms.
Finally, to confirm that the DSB's that are produced in vivo also induce perturbations in the cell cycle, DNA content in the various phases of the cell cycle was analysed by Fluorescence Activated Cell Sorting (FACS) after transduction of the proteins of the invention. After the treatment with diverse proteins at various concentrations and during different timepoints, the cells were fixed in 70% ethanol, treated with RNAse A and stained with propidium […].
The FACS analysis was done using a FACSCalibur™ (Becton Dickinson) apparatus. The obtained data were evaluated with the CellQuest™ software program package. At least 3×10^4 single events for every sample were analysed in the DDM mode. The statistic analysis of the DNA content distribution during the cell cycle was done with the MODFIT LT™ software program package. A 2N diploid DNA content correspond to cells in the G1 phase of the cell cycle, 4N represents a relative tetraploid DNA content and corresponds to G2 and/or M phase of the cell cycle. An intermediate DNA content represents S phase corresponding to a population actively replicating DNA during the cell cycle and a content that is below diploid 2N represents cells in apoptosis.
U2OS cells were incubated with 10 nM […] and with 10 μM H2O2 alone or in combination ant the cell cycle profile was analysed by FACS.

[3] = tested on: AT-5 cells (ATM negative); details: SCPVUTAT 100 nM or HU 1 mM
Experimental: AT-5 cells, negative for ATM were treated with [sequence]
as §3

V3 (DNA-PKcs−/−) cells = assay: Clonogenic assay of CHO cells mutated in NHEJ; assay type: cell-based, rodent; details: 100 nM, 24 hours, grown 7-10 days (FIG. 9 black bar)
Experimental: Clonogenic assay of CHO cells that were mutated for proteins involved in the NHEJ repair-pathway treated with [sequence]. The cell lines used are AA8 (parental line), V3 (DNA-PCCS^(−/−)), xrss5 (KU80^(−/−)) and XR-1 (XRCC4^(−/−)), HIS P1.13-11 (KU70^(−/−)) and the corresponding parental cell line CHO-K1. Various dilutions of the CHO cells containing the NHEJ mutations as indicated were treated for 24 hours with [sequence] (25 nM, grey bars; 100 nM, black bars) or not treated (white bars); the cells were washed and then grown for 7-10 days, stained with GIEMSA and colonies were counted.
Moreover these NHEJ mutant cells were tested with [sequence] in clonogenic, colony-outgrowth assays that were assayed after a single addition of [sequence] for 12 hours at a concentration of 10 nM (grey bars) or at a concentration of 75 nM (black bars) or without protein treatment (not treated, white bars). Seven to ten days after addition, cell growth was analysed by staining with GIEMSA-blue and quantification of diverse cell-concentrations. […] The multiwell-microtiter-plates (for an example see FIG. 13A) were scanned using the VersaDOC® (BioRad) imaging system and growth was automatically quantified with the software package Quantify One® for the analysis of the microtiter-plates (microtiter-plates scanning software).

[4] = tested on: neuroblastoma cells G1-LIN; assay: Apoptosis by FACS analysis of DNA content (below 2N); assay type: cell-based; details: 30 hours
Experimental: FACS analysis of the DNA content stained with propidium J^− of the neuroblastoma cells G1-LIN after […] treatment (10 nM, panel C; 100 nM panel B). The treatment of the samples was done for 30 hours. As a control samples treated with SC34 were used (100 nM, panel D) or not treated (panel A). At the bottom of each panel the representative percentage of the cell cycle phase distributions obtained are indicated (G1/S/G2-M). (A) indicates apoptotic cells.

[5] = tested on: MRC-5 cells (ATM positive control); assay: Colony forming assay; assay type: cell-based; details: 60 minutes treatment, 25 nM or 100 nM
Experimental: (§2) FIG. 8. Induction of Cell Cycle Block and Clonogenic Activity by […] of Cells Mutated for ATM (AT-5) in Comparison to Non Mutated Cells (MRC-5). • A) Distribution of DNA content distribution during the cell cycle detected by FACS analysis of AT-5 cells after 36 hours of […] treatment (25 nM, 100 nM), or with adriamycin (0.02 μg/ml; ADRIAMYCIN), or with SC34 (100 nM), and as control from non treated cells. The histograms represent DNA content relative to the cell-numbers; the panel on the right indicates the percentage of the corresponding distributions of the various cell cycle phases as calculated with the MODFIT™ program-package. • B) Colony forming assay with cell lines mutated for ATM and induced for DNA damage by […].
as §1

[6] = tested on: AT-5 cells (mutated for ATM); assay: Colony forming assay; assay type: cell-based
Experimental: as §2, §1

[7] = tested on: HCT116 cells (hMLH1 mutated); assay: Clonogenic assay of mismatch repair defective cells; assay type: cell-based, human; details: similar assays
Experimental: These cells were plated into multiwell-microtiter-plates at different concentrations and treated with [sequence] as indicated and stained with GIEMSA-blu. The multiwell-microtiter-plates (for an example see FIG. 13A) were scanned using the VersaDOC® (BioRad) imaging system and growth was automatically quantified with the software package Quantify One® for the analysis of the microtiter-plates (microtiter-plates scanning software).

B1: SCPVUTAT: single chain PvuII endonuclease (aa 1-157, GSGG linker, aa 2-157) fused to HIV Tat peptide and six histidine tag; SEQ ID NO:2 (protein, listed as Proteus vulgaris)
chain: MSHPDLNKLLELWPHIQEYQDLALKHGINDIFQDNGGKLLQVLLITGLTVLPGREGNDAVDNAGQEYELKSINIDLTKGFSTHHHMNPVIIAKYRQVPWIFAIYRGIAIEAIYRLEPKDLEFYYDKWERKWYSDGHKDINNPKIPVKYVMEHGTKIYGSGGSHPDLNKLLELWPHIQEYQDLALKHGINDIFQDNGGKLLQVLLITGLTVLPGREGNDAVDNAGQEYELKSINIDLTKGFSTHHHMNPVIIAKYRQVPWIFAIYRGIAIEAIYRLEPKDLEFYYDKWERKWYSDGHKDINNPKIPVKYVMEHGTKIYGSYGRKKRRQRRRGGSHHHHHH
B1 was tested, and the cell cycle response ([1]; cells negative for p53) was “do not exhibit arrest characteristics of the cell cycle”, the cell cycle response ([1]; cells positive for p53) was “cell cycle arrest behaviour in G1 and G2 with low S-phase values” and the p53-Ser15 phosphorylation [2] was “specific phosphorylation of p53-Ser^15 is obtained”. For the same molecule, the “cells in G2 phase” value (U2OS cells; 10 nM SCPVUTAT alone) was 28%, the “cells in G2 phase” value (U2OS cells; 10 nM SCPVUTAT in combination with 10 μM H2O2) was 45% and the “change of cell cycle distribution (DNA content)” value (U2OS cells; 10 nM, incubation for 24 hours) was “increase in the teraploid population”. For the same molecule, the p53-Ser15 phosphorylation [3] was “specific phosphorylation of p53-Ser^15 is obtained”, the “colonies relative to non treated cells (100%)” value (V3 (DNA-PKcs−/−) cells) was “below 1%” and the apoptotic cells ([4]; 10 nM) was 18%. For the same molecule, the apoptotic cells ([4]; 100 nM) was “more than 29%”, the “sensitivity in colony forming assay compared to AT-5” value [5] was “less sensitive” and the “colonies relative to non treated cells (100%)” value ([6]; 100 nM, 60 minutes, grown 7-10 days (FIG. 8B black bar)) was roughly 0%. The clonogenic activity ([6]; single treatment for 60 minutes) was “below 0.02%” and the “sensitivity in clonogenic assay” value [7] was “do not show any increase in sensibility”.
